The text below walks through data of US20230212288A1 (published 2023).

Assay [1] has as its target T1, human CD3 receptor complex (human, UniProt P07766 23-207; P09693 23-182; P04234 22-171). Put plainly: cell-based or functional assay.
For assay [2], the target named is T1, human CD3 receptor complex. Put plainly: flow cytometry on Jurkat cells (CD3-positive), FITC anti-human IgG detection. How it is done:
(§1) Cell suspensions of CD19-positive cell lines (NALM6 (ATCC® CRL-3273™), Toledo (ATCC® CRL-2631™), Namalwa (ATCC® CRL-1432™), Daudi (ATCC® CCL-213™), Ramos (RA 1) (ATCC® CRL-1596™), Raji (ATCC® CCL-86™)) and CD3-positive cell lines (HuT78 (ATCC® TIB-161™), CCRF-CEM (ATCC® CCL-119™), Jurkat (ATCC® TIB-152™)) with the concentration of 2*10⁶ cells/mL were introduced by 30 μL into a 96-well plate with a V-shaped bottom (Corning Inc, Cat. No. 3894). […] When the incubation was over, the cells were twice washed with the FACS buffer and deposited by centrifuging at 1000 rpM and (4±2°) C. 30 μL of a solution of FITC-tagged antibodies directed against human IgG (Donkey F(ab)₂ Anti-Human IgG, Abcam, Cat. No. Ab102437) diluted in the 1:200 ratio were added into each well to the deposited cells, and incubated on ice in the dark for 30 minutes, followed by triple washing with the FACS buffer. Then the cells were fixed by re-suspending the cell deposit in each well in 150 μL of the FIX-buffer (phosphate buffered saline with 1%-solution of formalin). Cell fluorescence intensity in the FITC-channel was measured with the use of the Canto II cytometer.
In general terms: A flow cytometer gives signals particle by particle.

The target of assay [3] is T1, human CD3 receptor complex. Put plainly: flow cytometry on PBMCs of donor beta; competition of titrated BSAB with 100 nM biotin-conjugated BSAB, PE-streptavidin detection. How it is done: (§2) The blood was diluted with the same volume of the phosphate buffered saline (ECO-Servis, Cat. No. B-60201), layered above Ficoll density gradient (ρ=1.077 g/cm³) (“Pan-Eco”, Cat. No. P052) and centrifuged at 800 g and 20±2° C. for 30 minutes. PBMCs were collected at the phase boundary and washed twice with an isotonic phosphate buffered saline. A cell deposit was re-suspended in 15 mL of the DMEM/F12 medium (Sigma, Cat. No. D8900-10L) with 10% fetal bovine serum (GE Healthcare, Cat. No. SV30160) and incubated in a cultural vial (SPL Life Sciences Co, Cat. No. 70075) for attaching monocytes at 37±2° C. for 4 hours. Upon incubation, unattached cells were collected, a cell suspension was centrifuged, a cell deposit was re-suspended in the FACS buffer with a 1:100 Fc Blook solution (BD Pharmingen™, Cat. No. 564220) for inhibiting non-specific binding of Fc-receptors exposed on B-cell membranes. The prepared PBMC suspension with the cell concentration of 4*10⁶/mL was introduced by 50 μL (2*10⁵ cells per well) into a 96-well plate with a V-shaped bottom (Corning Inc, Cat. No. 3894).
(§3) Then a solution of biotin-conjugated BSAB with the concentration of 300 nM was prepared and introduced into wells with cells by 50 μL (preparation final concentration being 100 nM). […] Cell fluorescence intensity in the PE-channel was measured with the use of the Canto II cytometer. […]

Assay [4] deals with T1, human CD3 receptor complex. Nature of the assay: flow cytometry on PBMCs of donor; competition of titrated BSAB with 100 nM biotin-conjugated BSAB, PE-streptavidin detection. How it is done:
as §2, §3

In assay [5] the target is T1, human CD3 receptor complex. Nature of the assay: flow cytometry on CCRF-CEM cells (CD3-positive), FITC anti-human IgG detection. How it is done:
as §1

The target in assay [6] is T1, human CD3 receptor complex. Put plainly: cell-based or functional assay. The source holds these as a separate data set.
In assay [7] the target is T1, human CD3 receptor complex. Nature of the assay: flow cytometry on HUT78 cells (CD3-positive), FITC anti-human IgG detection. How it is done: as §1
For assay [8], the target named is T1, human CD3 receptor complex. Nature of the assay: flow cytometry on PBMCs of donor alpha; competition of titrated BSAB with 100 nM biotin-conjugated BSAB, PE-streptavidin detection. How it is done: as §2, §3

T1 sequence (P07766 23-207, chain 1 of 3): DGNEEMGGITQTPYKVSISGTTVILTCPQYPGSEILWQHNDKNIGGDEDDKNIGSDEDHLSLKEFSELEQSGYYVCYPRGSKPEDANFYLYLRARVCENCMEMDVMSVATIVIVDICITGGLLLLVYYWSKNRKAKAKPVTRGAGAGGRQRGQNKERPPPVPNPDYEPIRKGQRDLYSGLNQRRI
T1 sequence (P09693 23-182, chain 2 of 3): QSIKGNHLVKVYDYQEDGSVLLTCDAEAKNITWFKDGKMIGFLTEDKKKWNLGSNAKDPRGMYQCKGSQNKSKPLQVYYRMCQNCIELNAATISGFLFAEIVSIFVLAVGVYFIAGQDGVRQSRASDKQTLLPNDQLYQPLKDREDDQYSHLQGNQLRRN
T1 sequence (P04234 22-171, chain 3 of 3): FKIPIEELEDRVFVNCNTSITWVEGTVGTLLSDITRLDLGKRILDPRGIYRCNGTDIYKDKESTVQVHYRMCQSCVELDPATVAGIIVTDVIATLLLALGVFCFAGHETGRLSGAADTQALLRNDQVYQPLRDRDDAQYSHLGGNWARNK

B1: 400_03_H07 (bispecific antibody)
chain: DIQLTQTPASLAVSLGQRATISCKASQSVDYDGDSYLNWYQQIPGQPPKLLIYDASNLVSGIPPRFSGSGSGTDFTLNIHPVEKVDAATYHCQQSTEDPWTFGGGTKLEIKGGSGGAMAQVQLVESGGGVVQPGRSLRLSCAASGFTFSSYSMNWVRQAPGKGLEWVSSISSSSSYIYYADSVKGRFTISRDNAKNSLYLQMNSLRAEDTAVYYCARSGIAAAGFDYWGQGTLVTVSSGGGGSGGGGSGGGASNFMLTQPHSVSESPGKTVTISCARSSGSIASNYVQWYQQRPGSSPTTVIYEDNRRPSGVPDRFSGSFDSSSNSASLTISGLKTEDEADYYCQSYDSSNRVFGGGTKLTVLGQPAAAGGGGSQVQLQQSGAELVRPGSSVKISCKASGYAFSSYWMNWVKQRPGQGLEWIGQIWPGDGDTNYNGKFKGKATLTADESSSTAYMQLSSLASEDSAVYFCARRETTTVGRYYYAMDYWGQGTSVTVSSASAAVECPPCPAPPVAGPSVFLFPPKPKDTLMISRTPEVTCVVVDVSHEDPEVQFNWYVDGVEVHNAKTKPREEQFNSTFRVVSVLTVVHQDWLNGKEYKCKVSNKGLPAPIEKTISKTKGQPREPQVYTLPPSREEMTKNQVSLTCLVKGFYPSDIAVEWESNGQPENNYKTTPPMLDSDGSFFLYSKLTVDKSRWQQGNVFSCSVMHEALHNHYTQKSLSLSPGK
Regarding B1, the “Activity (EC50 for activation of Jurkat line cells, pM)” value (shortened to “Activity”) in assay [1] worked out at 328 pM.

B2: 309_02_A08 BSAB clone (bispecific antibody)
chain: DIQLTQTPASLAVSLGQRATISCKASQSVDYDGDSYLNWYQQIPGQPPKLLIYDASNLVSGIPPRFSGSGSGTDFTLNIHPVEKVDAATYHCQQSTEDPWTFGGGTKLEIKGGSGGAMAQVQLVQSGAEVKKPGASVKVSCKASGYTFTGYYMHWVRQAPGQGLEWMGIINPSGGSTSYAQKFQGRVTMTRDTSTSTVYMELSSLRSEDTAVYYCARTGKNYYYYGMDAWGQGTTVTVSSGGGGSGGGGSGGGASNFMLTQPHSVSESPGKTVTISCTRSSGSIARNYVQWYQQRPGSSPTTVIYEDNQRPSGVPDRFSASIDSSSNSASLTISGLQTEDEADYYCQSYDTSNHVVFGGGTKLTVLGQPAAAGGGGSQVQLQQSGAELVRPGSSVKISCKASGYAFSSYWMNWVKQRPGQGLEWIGQIWPGDGDTNYNGKFKGKATLTADESSSTAYMQLSSLASEDSAVYFCARRETTTVGRYYYAMDYWGQGTSVTVSSASAAVECPPCPAPPVAGPSVFLFPPKPKDTLMISRTPEVTCVVVDVSHEDPEVQFNWYVDGVEVHNAKTKPREEQFNSTFRVVSVLTVVHQDWLNGKEYKCKVSNKGLPAPIEKTISKTKGQPREPQVYTLPPSREEMTKNQVSLTCLVKGFYPSDIAVEWESNGQPENNYKTTPPMLDSDGSFFLYSKLTVDKSRWQQGNVFSCSVMHEALHNHYTQKSLSLSPGK
notes: described order VL CD3-VH CD19-VL CD19-VH CD3 with hinge and IgG2 Fc; the tie is not explicit; also called BSAB preparation
Consider B2, for which, in assay [1], the “Activity” value came to 2.2 pM. Moreover, the EC50 (as a rule, the concentration at which the effect is half-maximal) is 0.37 nM in assay [2], 0.4 nM in assay [5] and 1.2 nM in assay [7]. In addition, the IC50 (as a rule, the midpoint of a concentration-inhibition curve) in assay [3] was 66.5 nM; in assay [4], 62.3 nM; in assay [8], 52.1 nM. For the same molecule, in assay [6], the “EC50 of chemiluminescence signal, Raji cells with Jurkat-Luc-NFAT reporter cells” value is 0.0023 nM.

B3: 400_01_D06 (bispecific antibody)
chain: DIQLTQTPASLAVSLGQRATISCKASQSVDYDGDSYLNWYQQIPGQPPKLLIYDASNLVSGIPPRFSGSGSGTDFTLNIHPVEKVDAATYHCQQSTEDPWTFGGGTKLEIKGGSGGAMAQVQLVQSGAEVKKPGSSVKVSCKASGGTFSSYAISWVRQAPGQGLEWMGGIIPIFGTANYAQKFQGRVTITADESTSTAYMEVRSLRSDDTAVYYCVRDRGDYGDITYFDYWGQGTLVTVSSGGGGSGGGGSGGGASNFMLTQPHSVSESPGKTVTISCTGSSGSIASNYVQWYQQRPGSAPTIVIYEDNHRPSGVPDRFSGSIDSSSNSASLTISGLKTEDEADYYCQSYDSSDRVVFGGGTKVTVLGQPAAAGGGGSQVQLQQSGAELVRPGSSVKISCKASGYAFSSYWMNWVKQRPGQGLEWIGQIWPGDGDTNYNGKFKGKATLTADESSSTAYMQLSSLASEDSAVYFCARRETTTVGRYYYAMDYWGQGTSVTVSSASAAVECPPCPAPPVAGPSVFLFPPKPKDTLMISRTPEVTCVVVDVSHEDPEVQFNWYVDGVEVHNAKTKPREEQFNSTFRVVSVLTVVHQDWLNGKEYKCKVSNKGLPAPIEKTISKTKGQPREPQVYTLPPSREEMTKNQVSLTCLVKGFYPSDIAVEWESNGQPENNYKTTPPMLDSDGSFFLYSKLTVDKSRWQQGNVFSCSVMHEALHNHYTQKSLSLSPGK
B3: the “Activity” value in assay [1] came to 17.5 pM.

B4: 309_04_A04 (bispecific antibody)
chain: DIQLTQTPASLAVSLGQRATISCKASQSVDYDGDSYLNWYQQIPGQPPKLLIYDASNLVSGIPPRFSGSGSGTDFTLNIHPVEKVDAATYHCQQSTEDPWTFGGGTKLEIKGGSGGAMAQVQLQQWGAGLLKPSETLSLTCAVYGGSFSGYYWSWIRQPPGKGLEWIGEISRSGTTNYNSSLKSRVTISVDTSKNQFSLKLSSVTAADTAVYYCARATRNGVFDYWGQGTLVTVSSGGGGSGGGGSGGGASNFMLTQPHSVSESPGKTVTISCTRSSGSIASNYVQWYQQRPGSAPSTVIYEDNQRPSGVPDRFSGSIDSSSNSASLTISGLKTEDEADYYCQSYDSGVVFGGGTKLTVLGQPAAAGGGGSQVQLQQSGAELVRPGSSVKISCKASGYAFSSYWMNWVKQRPGQGLEWIGQIWPGDGDTNYNGKFKGKATLTADESSSTAYMQLSSLASEDSAVYFCARRETTTVGRYYYAMDYWGQGTSVTVSSASAAVECPPCPAPPVAGPSVFLFPPKPKDTLMISRTPEVTCVVVDVSHEDPEVQFNWYVDGVEVHNAKTKPREEQFNSTFRVVSVLTVVHQDWLNGKEYKCKVSNKGLPAPIEKTISKTKGQPREPQVYTLPPSREEMTKNQVSLTCLVKGFYPSDIAVEWESNGQPENNYKTTPPMLDSDGSFFLYSKLTVDKSRWQQGNVFSCSVMHEALHNHYTQKSLSLSPGK
On to B4, for which, in assay [1], the “Activity” value turned out to be 3.7 pM.
